Residue numbers refer to the chain shown, from its start. Names and notes keep the numbering of the source.
B1: D106A/D^P3H1 (protein, UniProt Q32P28 23-736, looked up, variant D106A)
Prolyl 3-hydroxylase 1: EVESEAGWGMVTPDLLFAEGTAAYARGDWPGVVLSMERALRSRAALRALRLRCRTQCAADFPWELDPDWSPSPAQASGAAALRALSFFGGLLRRAACLRRCLGPPAAHSLSEEMELEFRKRSPYNYLQVAYFKINKLEKAVAAAHTFFVGNPEHMEMQQNLDYYQTMSGVKEADFKDLETQPHMQEFRLGVRLYSEEQPQEAVPHLEAALQEYFVAYEECRALCEGPYDYDGYNYLEYNADLFQAITDHYIQVLNCKQNCVTELASHPSREKPFEDFLPSHYNYLQFAYYNIGNYTQAVECAKTYLLFFPNDEVMNQNLAYYAAMLGEEHTRSIGPRESAKEYRQRSLLEKELLFFAYDVFGIPFVDPDSWTPEEVIPKRLQEKQKSERETAVRISQEIGNLMKEIETLVEEKTKESLDVSRLTREGGPLLYEGISLTMNSKLLNGSQRVVMDGVISDHECQELQRLTNVAATSGDGYRGQTSPHTPNEKFYGVTVFKALKLGQEGKVPLQSAHLYYNVTEKVRRIMESYFRLDTPLYFSYSHLVCRTAIEEVQAERKDDSHPVHVDNCILNAETLVCVKEPPAYTFRDYSAILYLNGDFDGGNFYFTELDAKTVTAEVQPQCGRAVGFSSGTENPHGVKAVTRGQRCAIALWFTLDPRHSERDRVQADDLVKMLFSPEEMDLSQEQPLDAQQGPPEPAQESLSGSESKPKDEL
B2: R76D^P3H1 (protein)
chain: B1 Prolyl 3-hydroxylase 1 with R54D, A84D

System: CRTAP
Experiment: Strep-tactin pulldown, P3H1 mutants with CRTAP
Assay type: binding, human
Conditions: P3H1 mutations at the X-interface, Fig. 2g

Molecule | formation of the PCP complex
B1 | significantly decrease the formation of the PCP complex
B2 | significantly decrease the formation of the PCP complex
